Measurements published in patent publication US20260139017A1, “COMPOSITIONS AND METHODS USING REELIN IN ALZHEIMER'S DISEASE” (The General Hospital Corporation, priority 2022, published 2026).

B1: Il2ss-flagMini-RELNFspCR50R5-6CtermH3447R (protein)
chain: MYRMQLLSCIALSLALVTNSGGDYKDDDDKTGGAAGYYPRFSPFFFLCTHHGELEGDGEQGEVLISLHIAGNPTYYVPGQEYHVTISTSTFFDGLLVTGLYTSTSVQASQSIGGSSAFGFGIMSDHQFGNQFMCSVVASHVSHLPTTNLSFIWIAPPAGTGCVNFMATATHRGQVIFKDALAQQLCEQGAPTDVTVHPHLAEIHSDSIILRDDFDSYHQLQLNPNIWVECNNCETGEQCGAIMHGNAVTFCEPYGPRELITTGLNTTTASVLQFSIGSGSCRFSYSDPSIIVLYAKNNSADWIQLEKIRAPSNVSTIIHILYLPEDAKGENVQFQWKQENLRVGEVYEACWALDNILIINGSRGGQTNATRFRLWQPYNNGKKEEIWIVDDFIIDGNNVNNPVMLLDTFDFGPREDNWFFYPGGNIGLYCPYSSKGAPEEDSAMVFVSNEVGEHSITTRDLNVNENTIIQFEINVGCSTDSSSADPVRLEFSRDFGATWHLLLPLCYHSSSHVSSLCSTEHHPSSTYYAGTMQGWRREVVHFGKLHLCGSVRFRWYQGFYPAGSQPVTWAIDNVYIGPQCEEMCNGQGSCINGTKCICDPGYSGPTCKISTKNPDFLKDDFEGQLESDRFLLMSGGKPSRKCGILSSGNNLFFNEDGLRMLMTRDLDLSHARFVQFFMRLGCGKGVPDPRSQPVLLQYSLNGGLSWSLLQEFLFSNSSNVGRYIALEIPLKARSGSTRLRWWQPSENGHFYSPWVIDQILIGGNISGNMVLEDDFTTLDSRKWLLHPGGTKMPVCGSTGDALVFIEKASTRYVVSTDVAVNEDSFLQIDFAVSCSVTDSCYAIELEYSVDLGLSWHPLVRDCLPTNVECSRYHLQRILVSDTFNKWTRITLPLPPYTRSQATRFRWHQPAPFDKQQTWAIDNVYIGDGCIDMCSGHGRCIQGNCVCDEQWGGLYCDDPETSLPTQLKDNFNRAPSSQNWLTVNGGKLSTVCGAVASGMALHFSGGCSRLLVTVDLNLTNAEFIQFYFMYGCLITPNNRNQGVLLEYSVNGGITWNLLMEIFYDQYSKPGFVNILLPPDAKEIATRFRWWQPRHDGLDQNDWAIDNVLISGSASTRKQNYMMNFSRQHGLRRFYNRRRRSLRRYP
B2: IL2ss-6xHis-hReelin R3-R6 CT-H3447R (protein)
chain: MYRMQLLSCIALSLALVTNSGGHHHHHHGGSRFSSTAPVLLQYSHDAGMSWFLVKEGCYPASAGKGCEGNSRELSEPTMYHTGDFEEWTRITIVIPRSLASSKTRFRWIQESSSQKNVPPFGLDGVYISEPCPSYCSGHGDCISGVCFCDLGYTAAQGTCVSNVPNHNEMFDRFEGKLSPLWYKITGAQVGTGCGTLNDGKSLYFNGPGKREARTVPLDTRNIRLVQFYIQIGSKTSGITCIKPRTRNEGLIVQYSNDNGILWHLLRELDFMSFLEPQIISIDLPQDAKTPATAFRWWQPQHGKHSAQWALDDVLIGMNDSSQTGFQDKFDGSIGGGTLDSRKWLLHPGGTKMPVCGSTGDALVFIEKASTRYVVSTDVAVNEDSFLQIDFAVSCSVTDSCYAIELEYSVDLGLSWHPLVRDCLPTNVECSRYHLQRILVSDTFNKWTRITLPLPPYTRSQATRFRWHQPAPFDKQQTWAIDNVYIGDGCIDMCSGHGRCIQGNCVCDEQWGGLYCDDPETSLPTQLKDNFNRAPSSQNWLTVNGGKLSTVCGAVASGMALHFSGGCSRLLVTVDLNLTNAEFIQFYFMYGCLITPNNRNQGVLLEYSVNGGITWNLLMEIFYDQYSTGGSGGSTRKQNYMMNFSRQHGLRRFYNRRRRSLRRYP

Columns and labels:
pDAB1 (Tyr232) [1] = assay: HRECs treated 5 minutes with HEK 293T-derived mini-RELN media, pDAB1 western blot; assay type: cell-based, human; conditions: HEK 293T-derived media 1:1, 1:4, 1:14, 5 minutes
Experimental: The effect of in vitro treatment with RELN or miniRELN protein was also evaluated. HRECs were cultured in EBM-2 media enriched with EGM-2 Single Quots (Lonza) at 37° C. and 5% CO2 and experimentally tested at passage 7. 24 h prior experiment, cells were plated on a 6-well plate at 500,000 cells/mL. Two hours before the experiment, the cells were washed with PBS to remove residual growth media and then incubated with a starving media including EBM-2, 1% GlutaMax+0,2% Normicin. Treatments was conducted using media derived from HEK 293T cells transiently transfected for 24 h with different mini-RELN constructs in the presence of Lipofectamine 2000. HEK-derived Lipofectamine2000-media was used as negative control. HEK 293T-derived media was tested at different ratio 1:1, 1:4, and 1:14 (Transfected media:Starving media). Each treatment was incubated for 5 minutes and cells were subsequently harvested in lysis buffer was applied constituted of RIPA (Cell signaling), proteases inhibitors (cOmplete™, Mini, EDTA-free Protease Inhibitor Cocktail, Roche), phosphatases inhibitors (PhosSTOP, Roche), 1 μL of proteasome inhibitor MG-132 10 mM, 1% Triton X 100. The lysates were scraped and centrifugated at 15000 rpm for 10 minutes at 4° C. Total protein levels were quantified via BCA assay. […] We detected pDAB1 (Tyr232; 1:1000, rabbit, #3325 Cell signaling), and Beta actin (1:5000, mouse, #66009-1-Ig, Proteintech. Antibodies were diluted using Intercept® (TBS) Blocking Buffer and incubated overnight at 4C under gentle shaking. Prior secondary antibody incubation, membranes were washes 2 times using TBS-T for 10 minutes. As secondary antibodies we used IR Dye 800n CW Goat-anti-Rabbit (925-32211, Licor) and IR Dye 680 CW Goat-anti-Mouse (925-68070, Licor) both diluted 1:10000 in blocking buffer for 1 h at room temperature under gentle shaking. Membranes were washed three times with TBS-T prior IR detection using Odyssey imager. To quantify the results, each band was quantified using ImageJ and data expressed as pDAB1:βActin ratio normalized to the control. […]

pDAB1 (Tyr232) [2] = assay: HRECs treated 5 minutes with recombinant mini-RELN, pDAB1 western blot; assay type: cell-based, human; conditions: 5 minutes, 4 ug/mL recombinant protein
Experimental: For in vitro screening of constructs using recombinant mini-RELN on HRECs, the cells were cultured in EBM-2 media enriched with EGM-2 Single Quots (Lonza) at 37° C. and 5% CO2 and experimentally tested at passage 7. 24 h prior experiment, cells were plated on a 6-well plate at 500,000 cells/mL. Two hours before the experiment, the cells were washed with PBS to remove residual growth media and then incubated with a starving media including EBM-2, 1% GlutaMax+0.2% Normicin. Treatments was conducted using recombinant mini RELN constructs obtained from Innovagen and Recombinant Mouse Reelin Protein from R&D systems (3820-MR-025/CF). Each treatment was incubated for 5 minutes at 4 ug/mL concentration and cells were subsequently harvested in lysis buffer was applied constituted of RIPA (Cell signaling), proteases inhibitors (cOmplete™, Mini, EDTA-free Protease Inhibitor Cocktail, Roche), phosphatases inhibitors (PhosSTOP, Roche), 1 μL of proteasome inhibitor MG-132 10 mM, 1% Triton X 100. The lysates were scraped and centrifugated at 15000 rpm for 10 minutes at 4° C. Total protein levels were quantified via BCA assay. For Western Blotting, 3.5 ug protein homogenates were prepared under reducing and denaturing conditions using Laemmli buffer enriched with 10 mM DTT and 5 min boiling. Samples were electrophoretically separated in a 4-20% Gel at 90V and protein transferred to a PVDF membrane using iBlot™ 2 Dry Blotting System. The membrane was blocked using Intercept® (TBS) Blocking Buffer for 2 hours. We detected pDAB1 (Tyr232; 1:1000, rabbit, #3325 Cell signaling), and total protein staining (Licor). Antibodies were diluted using Intercept® (TBS) Blocking Buffer and incubated overnight at 4C under gentle shaking. Prior secondary antibody incubation, membranes were washed 2 times using TBS-T for 10 minutes. As secondary antibodies we used IR Dye 800n CW Goat-anti-Rabbit (925-32211, Licor) diluted 1:10000 in blocking buffer for 1 h at room temperature under gentle shaking. Membranes were washed three times with TBST-T prior IR detection using Odyssey imager. To quantify the results, each band was quantified using ImageJ and data expressed as pDABL:total protein ratio normalized to the control.

Row | Molecule | pDAB1 / Dab1 signaling activation (pDAB1 (Tyr232) [1]) | pDAB1 levels (pDAB1 (Tyr232) [2])
1 | B1 | more robust compared to controls and compared to 233A | –
2 | B2 | efficacy | increased pDAB1 levels
